The record followed here is patent CN116731161A (UNIV NANKAI, dated 2023).

The experiment addresses T1, FcγRI (UniProt P12314 16-288).
T1 construct: also called CD64
As to the kind of experiment: SPR (Biacore T200), His-tagged target captured on anti-His chip, antibody as analyte. On the technique in general: Surface plasmon resonance follows binding to a sensor surface in real time, without labels.

T1 sequence (P12314 16-288 limits assumed): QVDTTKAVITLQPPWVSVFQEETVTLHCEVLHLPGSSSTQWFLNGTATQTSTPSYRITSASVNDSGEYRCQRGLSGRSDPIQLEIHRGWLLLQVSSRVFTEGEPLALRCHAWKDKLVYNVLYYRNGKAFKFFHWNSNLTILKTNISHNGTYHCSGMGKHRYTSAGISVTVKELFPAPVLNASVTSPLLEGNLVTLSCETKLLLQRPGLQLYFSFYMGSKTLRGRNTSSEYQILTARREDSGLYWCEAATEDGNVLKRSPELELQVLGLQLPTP

B1: X构型Rituximab抗体 (antibody, human IgG1, kappa)
heavy: not shown
light: QIVLSQSPAILSASPGEKVTMTCRASSSVSYIHWFQQKPGSSPKPWIYATSNLASGVPVRFSGSGSGTSYSLTISRVEAEDAATYYCQQWTSNPPTFGGGTKLEIKRTVAAPSVFIFPPSDEQLKSGTASVVCLLNNFYPREAKVQWKVDNALQSGNSQESVTEQDSKDSTYSLSSTLTLSKADYEKHKVYACEVTHQGLSSPVTKSFNRGECGGGGSGGGGSGGGGSGGGGSGGGGSGGGGSVPPPPPCCHPRLSLHRPALEDLLLGSEANLTCTLTGLRDASGVTFTWTPSSGKSAVQGPPERDLCGCYSVSSVLPGCAEPWNHGKTFTCTAAYPESKTPLTATLSKSGNTFRPEVHLLPPPSEELALNELVTLTCLARGFSPKDVLVRWLQGSQELPREKYLTWASRQEPSQGTTTFAVTSILRVAAEDWKKGDTFSCMVGHEALPLAFTQKTIDRLAGK
notes: also called X构型抗体; Rituximab X-body
B1: the binding result is given as “binds”.
